Test results as given in paper PMC4632185, “Mechanistic basis of Nek7 activation through Nek9 binding and induced dimerization” (Nature Communications, 2015).

B1: synthetic peptide corresponding to aa 810–828 of Nek9 (peptide, UniProt Q8TD19 810-828, looked up)
peptide: GWLRKELENAEFIPMPDSP
notes: source: synthetic peptide (Peptide Synthetics)
B2: GST-Nek9 810–828 (domain or fragment, human, UniProt Q8TD19 810-828, looked up)
chain: GWLRKELENAEFIPMPDSP
notes: source: E. coli, purified (glutathione sepharose)
B3: Nek7 N90R (enzyme)
chain: not shown
B4: Nek7 N90A (enzyme)
chain: not shown
B5: Nek7 N90K (enzyme)
chain: not shown
B6: GST-Nek9-CTD (aa 726–979) (domain or fragment, human, UniProt Q8TD19 726-979, looked up)
chain: KVLNSKTIRSNSSGLSIGTVFQSSSPGGGGGGGGGEEEDSQQESETPDPSGGFRGTMEADRGMEGLISPTEAMGNSNGASSSCPGWLRKELENAEFIPMPDSPSPLSAAFSESEKDTLPYEELQGLKVASEAPLEHKPQVEASSPRLNPAVTCAGKGTPLTPPACACSSLQVEVERLQGLVLKCLAEQQKLQQENLQIFTQLQKLNKKLEGGQQVGMHSKGTQTAKEEMEMDPKPDLDSDSWCLLGTDSCRPSL
notes: Nek9, human, C-terminal domain, residues 726-979; For some kinase assays the GST tag was removed with 3C protease; also called Nek9 non-catalytic C-terminal domain; N9 CTD; source: E. coli, purified (glutathione sepharose); not shown: GST, N-terminal, kept

Columns and labels:
Nek7^Y97F, full length [1] = target: T1, Nek7^Y97F, full length (human, UniProt Q8TDX7 1-302, Y97F); experiment: crystal structure; co-crystallisation by sitting drop vapour diffusion, Nek7^Y97F at 440 μM and Nek9 peptide at 880 μM; 0.2 M potassium thiocyanate, 0.1 M bis-Tris propane pH 7.5, 20% PEG 3350; 2.78 Å, space group P3_(1) 2 1; settings: both partners purified
T1 construct: Nek7, human, full length; residues 20-300 modelled in the structure; source: E. coli Codonplus RPIL, co-expressed with or without λ-phosphatase, purified (HisTRAP, Superdex-200)

[2] = target: T2, Nek7-His6, full-length wild type, unphosphorylated (human, UniProt Q8TDX7 1-302); experiment: pull-down; GST co-precipitation: 100 μg GST-Nek9 protein immobilised on glutathione sepharose-4B beads, incubated with 100 μg Nek7 in 500 μl for 1 h at 4 °C; 50 mM HEPES pH 7.5, 300 mM NaCl, 5% glycerol, 5 mM dithiothreitol, 0.05% Tween-20; Coomassie staining or immunoblot with α-His6; settings: both partners purified
T2 construct: Nek7 (NIMA-related kinase 7), human, full length; also called Nek7^WT; unphosphorylated Nek7^WT; source: E. coli Codonplus RPIL, co-expressed with or without λ-phosphatase, purified (HisTRAP, Superdex-200); not shown: His6, C-terminal, kept

[3] = target: the molecule itself; experiment: cell-based or functional assay
Nek7 N90K = target: B5; experiment: pull-down; GST co-precipitation: 100 μg GST-Nek9 protein immobilised on glutathione sepharose-4B beads, incubated with 100 μg Nek7 in 500 μl for 1 h at 4 °C; 50 mM HEPES pH 7.5, 300 mM NaCl, 5% glycerol, 5 mM dithiothreitol, 0.05% Tween-20; Coomassie staining or immunoblot with α-His6; settings: both partners purified
Nek7^Y97A, full length = target: T3, Nek7^Y97A, full length (human, UniProt Q8TDX7 1-302, Y97A); experiment: as above; settings: both partners purified
T3 construct: Nek7, human, full length; source: E. coli Codonplus RPIL, co-expressed with or without λ-phosphatase, purified (HisTRAP, Superdex-200)

phosphorylated Nek7^WT = target: T4, phosphorylated Nek7^WT (human, UniProt Q8TDX7 1-302, phosphorylated (sites not stated for this preparation)); experiment: as above; settings: both partners purified
T4 construct: Nek7, human, full length; also called phospho-Nek7^WT; source: E. coli Codonplus RPIL, co-expressed with or without λ-phosphatase, purified (HisTRAP, Superdex-200)

Nek7 N90R = target: B3; experiment: as above; settings: both partners purified
Nek7 K96E = target: T5, Nek7 K96E (human, UniProt Q8TDX7 1-302, K96E); experiment: as above; settings: both partners purified
T5 construct: Nek7, human, full length; source: E. coli Codonplus RPIL, co-expressed with or without λ-phosphatase, purified (HisTRAP, Superdex-200)

Nek7^Y97F, full length [4] = target: T1, Nek7^Y97F, full length; experiment: as above; settings: both partners purified
Nek7 N90A = target: B4; experiment: as above; settings: both partners purified
Sequence of Nek7 N90A (Q8TDX7 whole entry N90A): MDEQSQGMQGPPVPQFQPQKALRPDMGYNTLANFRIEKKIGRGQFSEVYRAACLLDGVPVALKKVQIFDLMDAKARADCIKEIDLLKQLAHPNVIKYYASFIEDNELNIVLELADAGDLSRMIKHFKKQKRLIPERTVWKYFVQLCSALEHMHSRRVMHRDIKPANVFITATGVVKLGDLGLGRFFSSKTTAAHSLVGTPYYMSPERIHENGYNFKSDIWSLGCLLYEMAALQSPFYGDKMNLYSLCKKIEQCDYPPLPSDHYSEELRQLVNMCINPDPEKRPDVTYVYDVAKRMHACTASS

T2 sequence (Q8TDX7 whole entry): as the sequence (Q8TDX7 whole entry N90A) above, with A90N counted along it
T1 sequence (Q8TDX7 whole entry Y97F, the tested form may be a part): as the sequence (Q8TDX7 whole entry N90A) above, with A90N, Y97F counted along it
Sequence of Nek7 N90K (Q8TDX7 whole entry N90K): as the sequence (Q8TDX7 whole entry N90A) above, with A90K counted along it
T5 sequence (Q8TDX7 whole entry K96E): as the sequence (Q8TDX7 whole entry N90A) above, with A90N, K96E counted along it
T3 sequence (Q8TDX7 whole entry Y97A): as the sequence (Q8TDX7 whole entry N90A) above, with A90N, Y97A counted along it
Sequence of Nek7 N90R (Q8TDX7 whole entry N90R): as the sequence (Q8TDX7 whole entry N90A) above, with A90R counted along it
T4 sequence (Q8TDX7 whole entry): as the sequence (Q8TDX7 whole entry N90A) above, with A90N counted along it

Binder: B1
- binding result (Nek7^Y97F, full length [1]): binds

Binder: B2
- binding result [2]: binds

Binder: B3
- in vitro kinase activity of the initially unphosphorylated Nek7 mutant, in the presence or absence of Nek9-CTD, against WT (32P incorporation, scintillation counting) [3]: ≤ 10 fold

Binder: B4
- fold decrease in in vitro kinase activity of the initially unphosphorylated Nek7 mutant, against WT (32P incorporation, scintillation counting) [3]: ~2 fold

Binder: B5
- in vitro kinase activity of the initially unphosphorylated Nek7 mutant, in the presence or absence of Nek9-CTD, against WT (32P incorporation, scintillation counting) [3]: ≤ 10 fold

Binder: B6
- binding result (Nek7 N90K): binds
- binding result (Nek7^Y97A, full length): binds
- binding result (phosphorylated Nek7^WT): binds
- binding result (Nek7 N90R): binds
- binding result [2]: binds
- binding result (Nek7 K96E): binds
- binding result (Nek7^Y97F, full length [4]): binds
- binding result (Nek7 N90A): binds
